Assay results published in patent US20120316071A1 (published 2012).
Values belong to the binder of their own block, whether it stands above or below them.

Columns and labels:
[1] = molecular target: T1, Recombinant Human DLL4 (R&D Systems Cat#1506-D4/CF) (human, UniProt Q9NR61 27-524); experiment: ECL multispot (MSD) binding assay, antigen spotted on plate, Fab 0.04 uM;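 also: purified Fab incubated 1 h at 20 °C on antigen spots, detected via TAG-labelled antibody, ECL read against each well's blank, with signal-to-blank of at least 4 scored as binder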
T1 construct: Bought recombinant protein; also called delta-like protein 4; rHuman DLL4

[2] = molecular target: T2, rHuman HGF R/c-MET/Fc Chimera, CF (R&D Systems Cat#358-MT/CF) (human, UniProt P08581 25-932); experiment: as above
T2 construct: Bought recombinant protein; also called HGF R/Fc; hepatocyte growth factor receptor; Fc part of the bought chimera not given
T2 sequence (P08581 25-932, change not shown): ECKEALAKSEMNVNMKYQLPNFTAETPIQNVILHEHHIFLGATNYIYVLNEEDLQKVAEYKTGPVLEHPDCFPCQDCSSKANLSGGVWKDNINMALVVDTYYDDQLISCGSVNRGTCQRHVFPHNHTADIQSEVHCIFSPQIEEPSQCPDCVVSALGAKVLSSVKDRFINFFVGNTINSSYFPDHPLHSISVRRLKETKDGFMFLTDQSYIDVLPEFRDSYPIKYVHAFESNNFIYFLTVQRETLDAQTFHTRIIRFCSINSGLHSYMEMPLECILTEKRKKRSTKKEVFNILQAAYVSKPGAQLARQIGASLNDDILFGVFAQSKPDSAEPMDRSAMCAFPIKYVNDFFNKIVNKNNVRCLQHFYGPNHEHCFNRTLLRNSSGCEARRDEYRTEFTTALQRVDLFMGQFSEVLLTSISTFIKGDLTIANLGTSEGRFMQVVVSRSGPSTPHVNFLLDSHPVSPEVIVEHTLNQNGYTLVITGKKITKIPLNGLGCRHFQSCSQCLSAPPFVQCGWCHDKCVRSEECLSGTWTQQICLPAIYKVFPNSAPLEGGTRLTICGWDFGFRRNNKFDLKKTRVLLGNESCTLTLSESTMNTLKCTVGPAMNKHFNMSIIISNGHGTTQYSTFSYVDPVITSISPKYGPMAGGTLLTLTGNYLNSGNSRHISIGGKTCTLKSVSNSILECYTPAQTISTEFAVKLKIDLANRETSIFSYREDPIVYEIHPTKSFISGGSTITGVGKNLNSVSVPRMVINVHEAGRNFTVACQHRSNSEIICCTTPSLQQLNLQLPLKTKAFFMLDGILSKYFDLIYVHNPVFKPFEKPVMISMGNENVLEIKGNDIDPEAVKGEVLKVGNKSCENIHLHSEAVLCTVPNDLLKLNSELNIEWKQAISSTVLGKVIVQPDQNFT

[3] = molecular target: T3, rHuman P-Cadherin/Fc Chimera, CF (R&D Systems Cat#861-PC) (human, UniProt P22223 108-654); experiment: as above
T3 construct: Bought recombinant protein; Fc part of the bought chimera not given

[4] = molecular target: T4, rHuman ErbB2/Fc Chimera, CF (R&D Systems Cat#1129-ER) (human, UniProt P04626 23-652); experiment: as above
T4 construct: Bought recombinant protein; also called human epidermal growth factor 2 receptor; Fc part of the bought chimera not given

[5] = molecular target: T5, rHuman Notch-1/Fc Chimera, CF (R&D Systems Cat#3647-TK) (human, UniProt P46531 19-526); experiment: as above
T5 construct: Bought recombinant protein; Fc part of the bought chimera not given

[6] = molecular target: T6, rHuman EGF R/Fc Chimera, CF (R&D Systems Cat#344-ER) (human, UniProt P00533 25-645); experiment: as above
T6 construct: Bought recombinant protein; also called epidermal growth factor receptor; Fc part of the bought chimera not given

[7] = molecular target: T7, rHuman Erythropoietin R/Fc Chimera, CF (R&D Systems Cat#963-ER) (human, UniProt P19235 25-250); experiment: as above
T7 construct: Bought recombinant protein; also called EPO R; EPO R/Fc; Fc part of the bought chimera not given
T7 sequence (looked up): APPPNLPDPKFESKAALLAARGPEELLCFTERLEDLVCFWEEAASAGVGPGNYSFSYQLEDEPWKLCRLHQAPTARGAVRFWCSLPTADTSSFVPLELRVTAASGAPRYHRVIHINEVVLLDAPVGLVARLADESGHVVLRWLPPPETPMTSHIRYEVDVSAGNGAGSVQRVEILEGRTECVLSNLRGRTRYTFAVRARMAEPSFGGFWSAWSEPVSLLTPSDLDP

[8] = molecular target: T8, rHuman CD44/Fc Chimera, CF (R&D Systems Cat#3660-CD) (human, UniProt P16070 21-220); experiment: as above
T8 construct: Bought recombinant protein; Fc part of the bought chimera not given

[9] = molecular target: T9, Recombinant Human DLL4 (delta-like protein 4) (human, UniProt Q9NR61 27-524); experiment: ELISA, Fab on plate-coated recombinant human DLL4
T9 construct: also called rHuman DLL4; Delta-like 4

[10] = molecular target: T10, Recombinant Human DLL4 (delta-like protein 4) (human, UniProt Q9NR61 27-524); experiment: SPR, Fab on recombinant human DLL4; column head x10^5 applied
T10 construct: Bought recombinant protein; also called rHuman DLL4; Delta-like 4

[11] = molecular target: T10, Recombinant Human DLL4 (delta-like …); experiment: SPR, Fab on recombinant human DLL4; column head x10^-3 applied
[12] = molecular target: T10, Recombinant Human DLL4 (delta-like …); experiment: SPR, Fab on recombinant human DLL4
[13] = molecular target: T11, Recombinant Human DLL4 (R&D Systems Cat#1506-D4/CF) (human, UniProt Q9NR61 27-524); experiment: ELISA and 96-well plate ECL
T11 construct: bought recombinant protein; also called rHuman DLL4; delta-like protein 4

[14] = molecular target: T12, rHuman EGF R/Fc Chimera, CF (human, UniProt P00533 25-645); experiment: ECL multispot (MSD) binding assay, antigen spotted on plate, 100 nM Fab
T12 construct: Bought protein; also called epidermal growth factor receptor; Fc part of the bought chimera not given

[15] = molecular target: T13, rHuman ErbB2/Fc Chimera, CF (human, UniProt P04626 23-652); experiment: as above
T13 construct: Bought protein; also called human epidermal growth factor 2 receptor; Fc part of the bought chimera not given

[16] = molecular target: T14, rHuman P-Cadherin/Fc Chimera, CF (human, UniProt P22223 108-654); experiment: as above
T14 construct: Bought protein; Fc part of the bought chimera not given

[17] = molecular target: T15, rHuman CD44/Fc Chimera, CF (human, UniProt P16070 21-220); experiment: as above
T15 construct: Bought protein; Fc part of the bought chimera not given

[18] = molecular target: T16, rHuman Erythropoietin R/Fc Chimera, CF (human, UniProt P19235 25-250); experiment: as above
T16 construct: Bought protein; also called EPO R; EPO R/Fc; Fc part of the bought chimera not given
T16 sequence (looked up): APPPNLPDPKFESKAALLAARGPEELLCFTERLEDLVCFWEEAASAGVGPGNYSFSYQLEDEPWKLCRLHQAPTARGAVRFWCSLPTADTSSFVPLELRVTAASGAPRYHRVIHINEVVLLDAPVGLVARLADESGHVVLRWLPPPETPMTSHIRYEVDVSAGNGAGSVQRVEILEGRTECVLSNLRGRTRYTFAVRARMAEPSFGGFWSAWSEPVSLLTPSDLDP

[19] = molecular target: T17, rHuman IGF-1 sR, (IGF-1 sR), CF (human, UniProt P08069 31-932); experiment: as above
T17 construct: The column head prints 'IGF-1'; The antigen panel of the assay holds the soluble IGF-1 receptor, not the ligand; also called insulin-like growth factor-1 soluble receptor

[20] = molecular target: T18, rHuman Notch-1/Fc Chimera, CF (human, UniProt P46531 19-526); experiment: as above
T18 construct: Bought protein; Fc part of the bought chimera not given

B1: Fab VH5-51_IGHD5-18*01>3_IGHJ4*01 G100K/G104T (H:KT) & V3-4_IGLJ1*01 V91A (Fab, V domains shown)
VH: EVQLVQSGAEVKKPGESLKISCKGSGYSFTSYWIGWVRQMPGKGLEWMGIIYPGDSDTRYSPSFQGQVTISADKSISTAYLQWSSLKASDTAMYYCARRKYSYTYDYFDYWGQGTLVTVSS
VL: QTVVTQEPSFSVSPGGTVTLTCGLSSGSVSTSYYPSWYQQTPGQAPRTLIYSTNTRSSGVPDRFSGSILGNKAALTITGAQADDESDYYCALYMGSGISYVFGTGTKVTVL
notes: Fab; Expressed from Plasmid A (CH1, His6 and Flag tags) and Plasmid E (lambda CL); also called KT & V91A
ECL signal [1]: 33400
ECL signal [2]: 1110
ECL signal [3]: 484
ECL signal [4]: 1120
ECL signal [5]: 682
ECL signal [6]: 833
ECL signal [7]: 675
ECL signal [8]: 632

B2: Fab VH5-51_IGHD5-18*01>3_IGHJ4*01 G100K/G104T (H:KT) & V3-4_IGLJ1*01 G23L (Fab, V domains shown)
VH: EVQLVQSGAEVKKPGESLKISCKGSGYSFTSYWIGWVRQMPGKGLEWMGIIYPGDSDTRYSPSFQGQVTISADKSISTAYLQWSSLKASDTAMYYCARRKYSYTYDYFDYWGQGTLVTVSS
VL: QTVVTQEPSFSVSPGGTVTLTCLLSSGSVSTSYYPSWYQQTPGQAPRTLIYSTNTRSSGVPDRFSGSILGNKAALTITGAQADDESDYYCVLYMGSGISYVFGTGTKVTVL
notes: Fab (CH1 with His6/Flag tags from Plasmid A, lambda CL from Plasmid E); also called G100K/G104T & G23L
ELISA signal [9]: 0.1

B5: Fab VH1-46_IGHD6-6*01_IGHJ1*01 S102A/S103P/S104F/H111F (H:APFF) & L6_IGKJ1*01 S28N/S30D/S31H (L:NDH) (Fab, V domains shown)
VH: QVQLVQSGAEVKKPGASVKVSCKASGYTFTSYYMHWVRQAPGQGLEWMGIINPSGGSTSYAQKFQGRVTMTRDTSTSTVYMELSSLRSEDTAVYYCAREEYAPFSAEYFQFWGQGTLVTVSS
VL: EIVLTQSPATLSLSPGERATLSCRASQNVDHYLAWYQQKPGQAPRLLIYDASNRATGIPARFSGSGSGTDFTLTISSLEPEDFAVYYCQQRSNWPPWTFGQGTKVEIKR
notes: Fab; also called H:APFF & L:NDH; APFF-NDH
fold affinity against the parent antibody APFF mutant [13]: 4 fold

B6: Fab VH1-46_IGHD6-6*01_IGHJ1*01 S102A/S103P/S104F/H111F/G56A (H:APFF G56A) & L6_IGKJ1*01 S28N/S30D/S31H (L:NDH) (Fab, V domains shown)
VH: QVQLVQSGAEVKKPGASVKVSCKASGYTFTSYYMHWVRQAPGQGLEWMGIINPSGASTSYAQKFQGRVTMTRDTSTSTVYMELSSLRSEDTAVYYCAREEYAPFSAEYFQFWGQGTLVTVSS
VL: EIVLTQSPATLSLSPGERATLSCRASQNVDHYLAWYQQKPGQAPRLLIYDASNRATGIPARFSGSGSGTDFTLTISSLEPEDFAVYYCQQRSNWPPWTFGQGTKVEIKR
notes: Fab; also called H:APFF G56A & L:NDH
fold affinity against the H:APFF & L:wt parental antibody mutant [13]: 8 fold

B7: Fab VH3-23_IGHD2-21*01>3_IGHJ6*01 I107A & V2-13_IGLJ2*01 (Fab, V domains shown)
VH: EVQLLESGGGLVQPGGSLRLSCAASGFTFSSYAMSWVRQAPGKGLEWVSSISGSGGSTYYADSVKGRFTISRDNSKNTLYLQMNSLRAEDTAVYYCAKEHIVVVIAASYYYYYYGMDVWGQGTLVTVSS
VL: SSELTQDPAVSVALGQTVRITCQGDSLRSYYASWYQQKPGQAPVLVIYGKNNRPSGIPDRFSGSSSGNTASLTITGAQAEDEADYYCNSRDSSGNHLVVFGGGTKLTVL
notes: Tested as a Fab made in E. coli
ECL signal/blank ratio (quantity not given) [14]: 4.3
ECL signal/blank ratio (quantity not given) [15]: 4.8
ECL signal/blank ratio (quantity not given) [16]: 19.6
ECL signal/blank ratio (quantity not given) [17]: 1.5
ECL signal/blank ratio (quantity not given) [18]: 43.6
ECL signal/blank ratio (quantity not given) [19]: 1.1
ECL signal/blank ratio (quantity not given) [20]: 2.7

B8: Fab VH3-23_IGHD2-21*01>3_IGHJ6*01 S108A & V2-13_IGLJ2*01 (Fab, V domains shown)
VH: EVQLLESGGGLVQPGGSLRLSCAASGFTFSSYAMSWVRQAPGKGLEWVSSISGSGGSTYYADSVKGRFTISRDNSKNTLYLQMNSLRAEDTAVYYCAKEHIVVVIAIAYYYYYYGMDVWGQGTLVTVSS
VL: SSELTQDPAVSVALGQTVRITCQGDSLRSYYASWYQQKPGQAPVLVIYGKNNRPSGIPDRFSGSSSGNTASLTITGAQAEDEADYYCNSRDSSGNHLVVFGGGTKLTVL
notes: as for B7
ECL signal/blank ratio (quantity not given) [14]: 2
ECL signal/blank ratio (quantity not given) [15]: 1.9
ECL signal/blank ratio (quantity not given) [16]: 4.8
ECL signal/blank ratio (quantity not given) [17]: 1.3
ECL signal/blank ratio (quantity not given) [18]: 9.5
ECL signal/blank ratio (quantity not given) [19]: 1.2
ECL signal/blank ratio (quantity not given) [20]: 1.5

Further lines, results first:

kon [10]: 1.1e+07 M⁻¹ s⁻¹
koff [11]: 0.036 s⁻¹
Kd [12]: 3.3 nM
B3: Fab VH5-51_IGHD5-18*01>3_IGHJ4*01 G100K/G104T G24T/S28R/G35V & V3-4_IGLJ1*01 V91L/S96P (Fab, V domains shown)
VH: EVQLVQSGAEVKKPGESLKISCKTSGYRFTSYWIVWVRQMPGKGLEWMGIIYPGDSDTRYSPSFQGQVTISADKSISTAYLQWSSLKASDTAMYYCARRKYSYTYDYFDYWGQGTLVTVSS
VL: QTVVTQEPSFSVSPGGTVTLTCGLSSGSVSTSYYPSWYQQTPGQAPRTLIYSTNTRSSGVPDRFSGSILGNKAALTITGAQADDESDYYCLLYMGPGISYVFGTGTKVTVL
notes: Fab made in E. coli; VH was cloned in Plasmid A (CH1, His6 and Flag tags) and VL in Plasmid E (lambda CL); also called H:KT TRV & L:LP

kon [10]: 2.96e+06 M⁻¹ s⁻¹
koff [11]: 0.0147 s⁻¹
Kd [12]: 5 nM
B4: Fab VH5-51_IGHD5-18*01>3_IGHJ4*01 G100K/G104T G24T/S28R/G35V & V3-4_IGLJ1*01 V91L/S96P S52G (Fab, V domains shown)
VH: EVQLVQSGAEVKKPGESLKISCKTSGYRFTSYWIVWVRQMPGKGLEWMGIIYPGDSDTRYSPSFQGQVTISADKSISTAYLQWSSLKASDTAMYYCARRKYSYTYDYFDYWGQGTLVTVSS
VL: QTVVTQEPSFSVSPGGTVTLTCGLSSGSVSTSYYPSWYQQTPGQAPRTLIYGTNTRSSGVPDRFSGSILGNKAALTITGAQADDESDYYCLLYMGPGISYVFGTGTKVTVL
notes: Fab made in E. coli; VH was cloned in Plasmid A (CH1, His6 and Flag tags) and VL in Plasmid E (lambda CL); also called H:KT TRV & L:LP S52G
